According to US20240109974A1 (SHANDONG SIMCERE BIOPHARMACEUTICAL, published 2024):

T1: human TNFR2 on the surface of CHO-TNFR2 cells (human, UniProt P20333 23-461)
T1 construct: whole, on cells
T1 sequence (looked up): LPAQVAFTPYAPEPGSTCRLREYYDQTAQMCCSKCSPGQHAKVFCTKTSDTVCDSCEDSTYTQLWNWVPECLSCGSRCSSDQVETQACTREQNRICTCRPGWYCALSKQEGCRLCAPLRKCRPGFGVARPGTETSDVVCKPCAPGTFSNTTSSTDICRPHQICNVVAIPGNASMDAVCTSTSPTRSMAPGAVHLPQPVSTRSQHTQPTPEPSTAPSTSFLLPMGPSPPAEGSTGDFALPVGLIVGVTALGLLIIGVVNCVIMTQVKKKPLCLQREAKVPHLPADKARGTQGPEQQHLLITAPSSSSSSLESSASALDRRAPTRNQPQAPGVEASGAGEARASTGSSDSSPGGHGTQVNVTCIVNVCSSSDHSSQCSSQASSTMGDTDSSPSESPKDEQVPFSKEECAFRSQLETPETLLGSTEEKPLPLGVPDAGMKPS

T2: human TNFR2 (Novoprotein, Cat #C830) (human, UniProt P20333 23-257, limits assumed)
T2 construct: construct not described; also called human TNFR2 protein
T2 sequence (looked up): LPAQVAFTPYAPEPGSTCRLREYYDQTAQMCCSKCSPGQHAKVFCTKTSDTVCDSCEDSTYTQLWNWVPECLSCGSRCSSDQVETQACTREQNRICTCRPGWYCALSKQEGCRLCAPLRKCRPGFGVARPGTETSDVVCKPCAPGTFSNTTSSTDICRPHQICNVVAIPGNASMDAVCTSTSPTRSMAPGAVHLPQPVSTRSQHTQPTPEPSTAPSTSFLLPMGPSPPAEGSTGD

T3: Human TNFR2-His (Sino 10417-H08H) (human, UniProt P20333 23-257)
T3 construct: Bought protein; also called recombinant human TNFR2 protein; not shown: His tag
T3 sequence (looked up): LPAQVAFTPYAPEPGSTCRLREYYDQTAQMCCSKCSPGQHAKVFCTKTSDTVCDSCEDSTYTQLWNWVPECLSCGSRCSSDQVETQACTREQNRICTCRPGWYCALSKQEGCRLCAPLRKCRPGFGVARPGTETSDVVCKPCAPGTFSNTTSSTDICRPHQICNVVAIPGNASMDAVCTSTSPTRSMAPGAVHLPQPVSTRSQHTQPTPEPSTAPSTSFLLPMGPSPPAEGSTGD


Key:
[1] = target: T1, human TNFR2 on the surface of CHO-TNFR2 …; assay: competition flow cytometry on CHO-TNFR2 cells, competitor TNFα-biotin; area under the MFI curve; design: unit not given beside the values
Method: (§1) CHO stable cells highly expressing human TNFR2 were used for the experiment (the same as CHO-TNFR2 in Example 4). The CHO-TNFR2 cells were digested, washed twice with DPBS, then stained with Live/Dead (L/D) (20 minutes at room temperature), and plated at a density of 1×10⁵ cells/50 μl/well. A test anti-TNFR2 antibody was diluted to 6 μg/ml with a staining buffer as the starting concentration: the antibody was subjected to 3.33-fold gradient dilution, with a total of 7 concentration points. The diluted antibody was added to the plated cells at 50 μl/well, and the mixture was mixed well by gentle pipetting, and incubated at 4° C. for 30 minutes. Then the diluted 100 ng/ml of human TNFα-biotin was added at 100 μl/well, and the mixture was mixed well by gentle pipetting, and then incubated at 4° C. for 30 minutes. The mixture was washed twice with a staining buffer, and then 0.12 μg/ml PE-streptavidin (BioLegend, Cat #405204) was added at 100 μl/well; the resulting mixture was incubated at 4° C. for 30 minutes. The mixture was washed twice with a staining buffer, and then 150 μl of staining buffer was added to resuspend the cells; signals were detected by a flow cytometer (Thermo Attune NxT). The inhibitory curve of an antibody was drawn with antibody concentration as the abscissa and corresponding MFI value as the ordinate, and fitted with four parameters (GraphPad Prism9) to calculate the IC50 value. The smaller the IC50 value, the stronger the ability of an antibody to inhibit the binding of human TNFα to human TNFR2. The blocking effect of a humanized antibody was normalized to its corresponding human-murine chimeric WT antibody. The higher the percentage value, the better the inhibitory effect of the humanized antibody.

[2] = target: T1, human TNFR2 on the surface of CHO-TNFR2 …; assay: competition flow cytometry on CHO-TNFR2 cells, competitor human TNFα-biotin
Method: as §1

[3] = target: T2, human TNFR2 (Novoprotein, Cat #C830); assay: competition ELISA, human TNFR2 coated, competitor human TNFα-Biotin
Method: 1 μg/ml human TNFR2 (Novoprotein, Cat #C830) was pre-coated with 100 μl/well […] in an ELISA plate. All the test TNFR2 antibodies were subjected to 2.5-fold gradient dilution from the highest concentration of 30 μg/ml; the diluted antibodies were mixed with 15 ng/ml human TNFα-Biotin (Acro Biosystem, Cat #TNA-H82E3) in equal volume, respectively; the resulting mixture was added to the ELISA plate at 100 μl/well, and incubated with shaking at room temperature for 2.0 hours. The plate was washed, and then a Streptavidin-HRP working solution (diluted at 1:10000) was added at 100 μl/well, and the mixture was incubated with shaking at room temperature for 40 minutes. The plate was washed again, and then the substrate TMB of HRP was added to develop colour. A stop solution was added to stop the reaction, and then a microplate reader (MD 13) was used to read the absorbance value. The inhibitory curve of an antibody was drawn with antibody concentration as the abscissa and corresponding OD value as the ordinate, and fitted with four parameters (GraphPad Prism9) to calculate the IC50 value. The smaller the IC50 value, the stronger the ability of an antibody to inhibit the binding of human TNFα to human TNFR2. The blocking effect of a humanized antibody was normalized to its corresponding human-murine chimeric antibody WT. The higher the percentage value, the better the inhibitory effect of the humanized antibody.

[4] = target: T3, Human TNFR2-His (Sino 10417-H08H); assay: SPR (Biacore T200), antibody captured on Protein A chip
Method: Biacore was used to detect the specific binding of a test anti-TNFR2 antibody to human and cynomolgus monkey TNFR2 proteins. In this experiment, a Protein A chip was used, the time required for the chip to capture the diluted antibody was determined by manual run, so that the Rmax of the saturated binding to an antigen was 50 RU. […] The affinity of an antibody for an antigen was determined by using multi-cycle dynamics. In each cycle, an antibody was injected and then a TNFR2 protein at a gradient concentration was injected, so that the antigen and the antibody underwent binding and dissociation processes. After each cycle, the Protein A chip was regenerated with Glycine pH 1.5 (removing the protein on the chip). The affinity KD of an antibody and an antigen was fitted with BIAcore T200 analysis software.

| Binder | AUC [1] | IC50 [2] [µg/mL] | IC50 [3] [µg/mL] | Kd [4] [nM] | koff [4] [s⁻¹] | kon [4] [M⁻¹ s⁻¹] |
| --- | --- | --- | --- | --- | --- | --- |
| 224-Hu7 (antibody, V domains shown, Humanized form of #224; also called VH9 + VL10) VH: QVQLVQSGSELKKPGASVKVSCKASGFNNKDIYMHWVRQAPGQGLEWMGRIDPATGNTKHDPKFQDKAVLSSDTSVSTAYLQISSLKAEDTAVYYCARSPYGDFGAMDYWGQGTLVTVSS VL: DIQMTQSPSSLSASVGDRVTITCTASSSVSSNYLHWYQQKPGKAPKLLIYSTSNLPSGVPSRFSGSGSGTDFTLTISSLQPEDFATYYCHQYHRSPWTFGQGTKVEIK | 19600 | 0.065 | 0.561 | 5.64 | 0.000815 | 145000 |
| 224-Hu4 (antibody, V domains shown, Humanized form of #224; also called VH9 + VL6) VH: QVQLVQSGSELKKPGASVKVSCKASGFNNKDIYMHWVRQAPGQGLEWMGRIDPATGNTKHDPKFQDKAVLSSDTSVSTAYLQISSLKAEDTAVYYCARSPYGDFGAMDYWGQGTLVTVSS VL: DIQMTQSPSSLSASVGDRVTITCTASSSVSSNYLHWYQQKPGKAPKLWIYSTSNLPSGVPSRFSGSGSGTDFTLTISSLQPEDFATYYCHQYHRSPWTFGQGTKVEIK | 14200 | 0.058 | 0.458 | 5.59 | 0.00072 | 129000 |
| 224-Hu3 (antibody, V domains shown, Humanized form of #224; also called VH9 + VL8) VH: QVQLVQSGSELKKPGASVKVSCKASGFNNKDIYMHWVRQAPGQGLEWMGRIDPATGNTKHDPKFQDKAVLSSDTSVSTAYLQISSLKAEDTAVYYCARSPYGDFGAMDYWGQGTLVTVSS VL: DIQMTQSPSSLSASVGDRVTITCTASSSVSSNYLHWYQQKPGKAPKLLIYSTSNLPSGVPSRFSGSGSGTDFTLTISSLQAEDAATYYCHQYHRSPWTFGQGTKVEIK | 18700 | 0.044 | 0.441 | 4.1 | 0.000726 | 177000 |

The remaining lines, values ahead:

| AUC [1] | IC50 [2] [µg/mL] | IC50 [3] [µg/mL] | Kd [4] [nM] | koff [4] [s⁻¹] | kon [4] [M⁻¹ s⁻¹] | Binder |
| --- | --- | --- | --- | --- | --- | --- |
| 14600 | 0.062 | 0.528 | 4.28 | 0.000682 | 159000 | 224-Hu5 (antibody, V domains shown, Humanized form of #224; also called VH9 + VL9) VH: QVQLVQSGSELKKPGASVKVSCKASGFNNKDIYMHWVRQAPGQGLEWMGRIDPATGNTKHDPKFQDKAVLSSDTSVSTAYLQISSLKAEDTAVYYCARSPYGDFGAMDYWGQGTLVTVSS VL: DIQMTQSPSSLSASVGDRVTITCTASSSVSSNYLHWYQQKPGKAPKLLIYSTSNLPSGVPSRFSGSGSGTDYSLTISSLQPEDFATYYCHQYHRSPWTFGQGTKVEIK |
| 19200 | 0.036 | 0.44 | 4.31 | 0.000686 | 159000 | 224-Hu2 (antibody, V domains shown, Humanized form of #224; also called VH9 + VL7) VH: QVQLVQSGSELKKPGASVKVSCKASGFNNKDIYMHWVRQAPGQGLEWMGRIDPATGNTKHDPKFQDKAVLSSDTSVSTAYLQISSLKAEDTAVYYCARSPYGDFGAMDYWGQGTLVTVSS VL: DIQMTQSPSSLSASVGDRVTITCTASSSVSSNYLHWYQQKPGSSPKLWIYSTSNLPSGVPSRFSGSGSGTDFTLTISSLQPEDFATYYCHQYHRSPWTFGQGTKVEIK |
